Reference: article PMC6874086
Read-outs that look alike come from different tables or passages of the source.

How the values were obtained:
VPS4A/B [1] = molecular target: VPS4A/B (UniProt Q9UN37); details: parent: est. 100; read off a plot
VPS4A/B [2] = molecular target: VPS4A/B (UniProt Q9UN37); details: parent: est. 100; read off a plot; remark: listed apart in the source

UniProt Q9UN37, sequence (Q9UN37 whole entry): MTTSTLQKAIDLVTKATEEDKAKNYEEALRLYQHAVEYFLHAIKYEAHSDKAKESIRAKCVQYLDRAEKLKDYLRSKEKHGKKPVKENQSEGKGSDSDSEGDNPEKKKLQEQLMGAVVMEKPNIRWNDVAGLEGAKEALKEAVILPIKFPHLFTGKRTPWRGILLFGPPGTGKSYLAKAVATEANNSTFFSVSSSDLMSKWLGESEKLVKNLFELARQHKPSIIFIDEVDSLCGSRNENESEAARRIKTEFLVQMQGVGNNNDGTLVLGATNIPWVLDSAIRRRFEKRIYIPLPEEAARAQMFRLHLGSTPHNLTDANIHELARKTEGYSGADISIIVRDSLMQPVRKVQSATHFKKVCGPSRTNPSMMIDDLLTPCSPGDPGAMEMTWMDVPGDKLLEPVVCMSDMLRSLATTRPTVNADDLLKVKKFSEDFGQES

What does the source list for “LCMV Z WT with a C-terminal streptavidin binding peptide (SBP) tag (from UniProt P18541) K5R; K10R; K33R; K38R; K69R; K77R”?
percent of parent (VPS4A/B [1]): 23 % of WT; percent of parent (VPS4A/B [2]): 24 % of WT
